To fix the notation:
T1: human CD276 protein (human, UniProt Q5ZPR3 29-534)
T1 construct: whole, on cells; for SKOV3 and the other cancer lines the protein is the cells' own; also called B7-H3; B7H3
T1 sequence (looked up): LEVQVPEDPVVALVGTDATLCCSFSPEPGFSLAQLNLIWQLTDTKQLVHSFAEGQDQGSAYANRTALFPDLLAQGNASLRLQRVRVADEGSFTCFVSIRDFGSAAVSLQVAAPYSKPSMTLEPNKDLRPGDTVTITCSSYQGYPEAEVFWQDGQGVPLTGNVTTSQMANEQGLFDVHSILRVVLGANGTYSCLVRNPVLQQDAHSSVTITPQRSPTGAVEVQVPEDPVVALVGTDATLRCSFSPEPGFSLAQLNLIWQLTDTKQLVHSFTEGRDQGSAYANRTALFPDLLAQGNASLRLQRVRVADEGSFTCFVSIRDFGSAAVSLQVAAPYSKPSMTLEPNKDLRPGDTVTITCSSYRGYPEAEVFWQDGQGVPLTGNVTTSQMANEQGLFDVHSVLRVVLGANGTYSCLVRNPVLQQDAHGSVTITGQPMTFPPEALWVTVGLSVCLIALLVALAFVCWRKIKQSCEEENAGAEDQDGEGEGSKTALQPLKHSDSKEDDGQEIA

T2: HUMAN B7H3 (Biacore analyte) (human, UniProt Q5ZPR3 29-461, limits assumed)
T2 construct: also called hB7H3
T2 sequence (looked up): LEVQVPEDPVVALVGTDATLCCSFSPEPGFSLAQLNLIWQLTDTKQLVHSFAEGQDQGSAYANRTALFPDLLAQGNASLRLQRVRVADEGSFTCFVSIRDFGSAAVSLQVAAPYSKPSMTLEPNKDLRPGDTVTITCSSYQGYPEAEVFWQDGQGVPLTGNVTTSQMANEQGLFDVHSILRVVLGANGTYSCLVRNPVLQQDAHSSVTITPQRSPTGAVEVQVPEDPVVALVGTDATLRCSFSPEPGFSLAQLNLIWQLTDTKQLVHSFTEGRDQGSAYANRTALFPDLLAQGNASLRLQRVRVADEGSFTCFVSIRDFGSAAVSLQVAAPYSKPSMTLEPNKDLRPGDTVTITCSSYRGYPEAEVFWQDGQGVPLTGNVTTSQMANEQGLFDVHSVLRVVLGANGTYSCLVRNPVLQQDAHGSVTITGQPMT

B1: MGC018 (antibody, V domains shown)
VH: EVQLVESGGGLVKPGGSLRLSCAASGFTFSSYGMSWVRQAPGKGLEWVATINSGGSNTYYPDSLKGRFTISRDNAKNSLYLQMNSLRAEDTAVYYCARHDGGAMDYWGQGTTVTVSS
VL: DIQMTQSPSSLSASVGDRVTITCRASESIYSYLAWYQQKPGKAPKLLVYNTKTLPEGVPSRFSGSGSGTDFTLTISSLQPEDFATYYCQHHYGTPPWTFGQGTRLEIKR
B2: 8-C3-E3-F3 (human IgG1 chimeric antibody) (antibody, V domains shown)
VH: EVQLVESGGGLVQPGGSLKLSCAASGFTFSNYGLSWVRLTPDKRLEVVATIGSYGGNTYYPDSVKGRFTISRDNAKNTLYLQMSSLKSEDTAIYYCARDIYYGNSEAWFAYWGQGTLVTVSA
VL: DIVMTQAAFSNPVTLGTSASISCRSSKSLLHSNGITYLYWYLQKPGQSPQLLIYQMSNLASGVPDRFSSSGSETDFTLRISRVEAEDVGVYYCAQNLELPWTFGGGTKLEIK
notes: human IgG1 chimeric antibody of the mouse clone
B3: 20-C5-D7-D3 (human IgG1 chimeric antibody) (antibody, V domains shown)
VH: EVQLVESGGDLVKPGGSLKLSCAASGFTFRSYGMSWVRQTPDKRLEWVATISGGGNYTYYPDSVKGRFTISRDNAKNTLYLQMSSLKSEDTAMYYCARHEGLPLDYWGQGTTLTVSS
VL: DIQMTQSPASLSASVGETVTITCRASENIYSYLAWYQQKQGKSPQLLVYNAKTLAEGVPSRFSGSGSGTQFSLKINSLQPEDFGNFYCQHHYGTPTWTFGGGTKLEIK
notes: as for B2
B4: 15-C8-B5-G7 (human IgG1 chimeric antibody) (antibody, V domains shown)
VH: QVQLQQPGAELVKPGASVKLSCKASDYTFTSHWMHWVKQRPGQGLEWIGMIHPNSGTTHYNENFKNKATLTVDNSSSTAYMQLSSLTSEDSAVYYCAWGSSNSYFYAMAYWGQGTSVTVSS
VL: QAVVTQESALTTSPGETVTLTCRSSTGAVTTSNYANWVQEKPAHLFTGLIGGTNNRAPGVPARFSGSLIGDKAALTITGAQTEDEAIYFCALWFSNHLVFGGGTKLTVL
notes: as for B2
B5: 22-E11-C3-F2 (human IgG1 chimeric antibody) (antibody, V domains shown)
VH: QIQLVQSGPELKRPGETVKISCKASGYSFTNYGMNWVKQAPGKGLKWMGWINPYTGEPTYADDFKGRFAMSLETSASAAYLQINNLKNEDMATYFCGRDDGYHYTMNYWGQGTSVTVSS
VL: DVVMTQPPLSLPVSLGDQASISCRSSQSLIHSNGDTYLHWYLQKPGQSPKLLIYKVSIRFSGVPDRFSGSGSGTDFTLKISRVEAEDLGVYFCSQSTYVPWTFGGGTKLEIK
notes: as for B2
B6: 20-A2-D10-G8 (human IgG1 chimeric antibody) (antibody, V domains shown)
VH: QVQLQQSGPELVRPGVSVKISCKGSGYTFTDYTMHWVKESHAQSLEWIGVISTYYGNTNYNQNFKGKATLTVDKSSSTAYMELAGLTSEDSAIYYCARASYGSGYGPYYWYFDVWGAGTTVTVSS
VL: DIQMTQSPASLFASVGETVTITCRASEKIYSYLAWYFQKQGKSPQFLVYNANALAEGVPSRFSGSGSGTQFSLKIKSLQPEDFGTYYCQHHYGSPVTFGAGSKLELK
notes: as for B2
B7: 10-B9-D10-A12 (human IgG1 chimeric antibody) (antibody, V domains shown)
VH: B6 VH with Q1E, Q6E, E39L, Q43K, N63K, G85R
VL: B6 VL with K76N, S94T
notes: as for B2
B8: 13-E4-G9-A4 (human IgG1 chimeric antibody) (antibody, V domains shown)
VH: EVMLVESGGGLVKPGGSLKFSCAASGFTFITYAMSWVRQTPEKRLEWVATISGGGIDTYYPDSVKGRFTISRDNAKNTLYLQVNSLRSEDTAMYYCTRQGSQGWGAMDYWGQGTSVTVSS
VL: QIVLTQSPPIMSASPGERVTMTCRASSRVSFMHWYQQKSGTSPRRWIYETSKLASGVPDRFSGSVSGTSYSLTISSMEAEDAATYYCQQWSSNPLTFGAGTKLELK
notes: as for B2
B9: 25-C8-D7-C5 (human IgG1 chimeric antibody) (antibody, V domains shown)
VH: B8 VH with M3Q, V5Q, I30S, V83M, T97A, Q102K
VL: B8 VL with P9A, R18K, R28S, R44K, V65G
notes: as for B2
B10: 10-G6-C4-B2_hVH5-VL3_PTM (antibody, V domains shown)
VH: EVQLVESGGGLVQPGRSLRLSCTTSGFTLSDYYMSWVRQAPGKGLEWVGFMRNKANAYTTEYSASVRGRFTISRDTSKSIIYLQMNSLKTEDTAVYYCVRDREGRPFAYWGQGTLVTVSS
VL: DIQMTQSPSSLSASVGDRVTITCKSSQSLLNAINQKNFLTWYQQKPGKAPKLLIYWASTRESGVPSRFSGSGSGTDFTLTISSLQPEDLATYYCQNDYTYPLTFGQGTKLEIK
notes: humanized, PTM-optimized antibody from 10-G6-C4-B2
B11: 10-G6-C4-B2_hVH4-VL2_PTM (antibody, V domains shown)
VH: B10 VH with V12I, R16G, T23A, A40P, G49S, I80T, K89R, T90A
VL: DIVMTQSPLSLPVTPGEPASISCKSSQSLLNAINQKNFLTWYLQKPGQSPQLLIYWASTRESGVPDRFSGSGSGTDFTLKISRVEAEDLGVYYCQNDYTYPLTFGQGTKLEIK
notes: as for B10

Positions count from the first letter of the chain named.

One experiment addresses T1, human CD276 protein. Description: FACS on SKOV3 cells. An outline of the steps:
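Human IgG1 chimeric antibodies were tested for binding to trypsin-detached SKOV3 ovarian cancer cells by flow cytometry, with cells washed in FACS buffer and kept in the dark before acquisition. Titration read-out was MFI plotted against antibody concentration (nM).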
For orientation: EC50 means the concentration at which the effect is half-maximal. Consider B1, for which the EC50 is 0.385 µg/mL and the “MFI (Max)” value is 2540.

As for B2, the concentration giving a half-maximal response (EC50) is 0.643 µg/mL and the “MFI (Max)” value was determined as 2880.

Take B3: the EC50 came to 0.941 µg/mL and the “MFI (Max)” value stood at 2310.

Turning to B4, the response was half-maximal at 0.293 µg/mL (EC50) and the “MFI (Max)” value stood at 2140.

For the molecule B5, the EC50 is 0.523 µg/mL and the “MFI (Max)” value came out at 5540.

Take B6: a half-maximal effect (EC50) was put at 0.791 µg/mL and the “MFI (Max)” value is 3110.

B7: the EC50 was 2.08 µg/mL and the “MFI (Max)” value was 3880.

Turning to B8, the 50% effective concentration (EC50) stood at 1.77 µg/mL and the “MFI (Max)” value is 3080.

In the case of B9, the EC50 was 2.03 µg/mL and the “MFI (Max)” value is 3480.

Another experiment addresses T1, human CD276 protein. As to the kind of experiment: cell-based or functional assay.
As to B2, the “EC50 of antibody induced ADCC effect on SKOV3” value (“EC50 … on SKOV3” for short) turned out to be 0.111 µg/mL.

For the molecule B3, the “EC50 … on SKOV3” value came to 0.069 µg/mL.

On to B4, for which the “EC50 … on SKOV3” value was found to be 0.697 µg/mL.

B5: the “EC50 … on SKOV3” value is 0.0179 µg/mL.

Turning to B6, the “EC50 … on SKOV3” value was determined as 0.263 µg/mL.

On to B7, for which the “EC50 … on SKOV3” value was 0.259 µg/mL.

Turning to B8, the “EC50 … on SKOV3” value was found to be 0.876 µg/mL.

B9: the “EC50 … on SKOV3” value came to 0.123 µg/mL.

A further experiment deals with T1, human CD276 protein. As to the kind of experiment: cell-based or functional assay. The source holds these as a separate data set.
As for B1, the “EC50 of antibody induced CDC effect” value worked out at 1.67 nM and the “Top cytotoxicity (%), CDC” value was determined as 93.3%.

Take B4: the “EC50 of antibody induced CDC effect” value came to 7.54 nM and the “Top cytotoxicity (%), CDC” value turned out to be 86.1%.

On to B6, for which the “EC50 of antibody induced CDC effect” value is 1.92 nM and the “Top cytotoxicity (%), CDC” value stood at 85.1%.

As to B9, the “EC50 of antibody induced CDC effect” value came to 2.42 nM and the “Top cytotoxicity (%), CDC” value is 91.4%.

A further experiment concerns the target T1, human CD276 protein. As to the kind of experiment: cell-based or functional assay. This is another data set of the same source.
B1: the “IC50 of indirect ADC cytotoxicity on SKOV3” value (“IC50” for short) was found to be 0.013 nM.

As for B2, the “IC50” value came out at 0.012 nM.

B3: the “IC50” value was determined as 0.007 nM.

Regarding B4, the “IC50” value was determined as 0.008 nM.

For B5, the “IC50” value is 0.016 nM.

For B6, the “IC50” value worked out at 0.007 nM.

B7: the “IC50” value was 0.021 nM.

For the molecule B8, the “IC50” value was found to be 0.021 nM.

Consider B9, for which the “IC50” value turned out to be 0.018 nM.

A further experiment addresses T2, HUMAN B7H3 (Biacore analyte). As to the kind of experiment: SPR, Biacore 8K, antibody captured, B7H3 as analyte, 1:1 binding.
In general, Kd refers to the free concentration of one partner at which half of the binding sites on the other are occupied at equilibrium, for simple one-to-one binding. In general, koff refers to a measure of how fast the partners let go of each other. Usually kon stands for the rate constant with which the complex forms. Read a high kon as fast association. B1 showed a Kd of 0.459 nM, a koff of 0.000408 s⁻¹ and a kon of 889000 M⁻¹ s⁻¹.

The molecule B2 returned a Kd of 0.444 nM, a koff of 0.00044 s⁻¹ and a kon of 990000 M⁻¹ s⁻¹.

In turn, B3 had a Kd of 0.644 nM, a koff of 0.000416 s⁻¹ and a kon of 645000 M⁻¹ s⁻¹.

B4: the Kd came to 0.399 nM, the koff worked out at 0.000196 s⁻¹ and the kon was found to be 492000 M⁻¹ s⁻¹.

In the case of B6, the Kd amounted to 0.555 nM, the koff was 0.000282 s⁻¹ and the kon turned out to be 508000 M⁻¹ s⁻¹.

B7: binding was put at a Kd of 0.752 nM, the koff stood at 0.000282 s⁻¹ and the on-rate constant (kon) turned out to be 375000 M⁻¹ s⁻¹.

Consider B9, for which binding was put at a Kd of 1.2 nM, the koff was 0.000243 s⁻¹ and the kon turned out to be 203000 M⁻¹ s⁻¹.

For the next experiment the target is unchanged. The experiment is described as above. The source holds these as a separate data set.
B10 displayed a Kd of 0.00692 nM, a koff of 1.01e-06 s⁻¹ and a kon of 146000 M⁻¹ s⁻¹.

The molecule B11 displayed a Kd of 1.35 nM, an off-rate constant (koff) of 7.12e-05 s⁻¹ and a kon of 52700 M⁻¹ s⁻¹.

The record behind these values is patent publication US20240400689A1 (ANTENGENE BIOLOGICS, published 2024).
